What was measured:
[1] = biological target: T1, SARS-CoV-2 nucleocapsid NTD (WT) (SARS-CoV-2 (reference genome …, UniProt P0DTC9 44-180)); assay: NMR; intermediate exchange; settings: protein: recombinant; tags: cleaved tag; one artificial N-terminal Gly left; labile hairpin, Tm 36.5 C
[2] = biological target: T1, SARS-CoV-2 nucleocapsid NTD (WT); assay: ITC; low-salt; settings: protein: recombinant; tags: cleaved tag; one artificial N-terminal Gly left; hairpin with 3' ss extension
[3] = biological target: T2, SARS-CoV-2 nucleocapsid NTD (WT) (SARS-CoV-2 (reference genome …, UniProt P0DTC9 44-180)); assay: ITC; settings: protein: recombinant; tags: cleaved tag; one artificial N-terminal Gly left; label: 5'-32P in EMSA; hairpin
[4] = biological target: T2, SARS-CoV-2 nucleocapsid NTD (WT); assay: ITC; low-salt; NTD titrated to RNA; settings: protein: recombinant; tags: cleaved tag; one artificial N-terminal Gly left; label: 5'-32P in EMSA; hairpin
[5] = biological target: T1, SARS-CoV-2 nucleocapsid NTD (WT); assay: NMR; SL4ext-like; settings: protein: recombinant; tags: cleaved tag; one artificial N-terminal Gly left
[6] = biological target: T1, SARS-CoV-2 nucleocapsid NTD (WT); assay: EMSA; 1 mM Mg2+, yeast tRNA; apparent; settings: protein: recombinant, tags: cleaved tag, one artificial N-terminal Gly left, label: 5'-32P in EMSA
[7] = biological target: T1, SARS-CoV-2 nucleocapsid NTD (WT); assay: NMR; SL4ext-like; stability confirmed by aSEC; settings: protein: recombinant, tags: cleaved tag, one artificial N-terminal Gly left
[8] = biological target: T1, SARS-CoV-2 nucleocapsid NTD (WT); assay: EMSA; settings: protein: recombinant; tags: cleaved tag; one artificial N-terminal Gly left; label: 5'-32P in EMSA; branched stem-loops

## GGAUAAUUAAUAACUAAUUACU (ssRNA) [Ext]
[1]
  binding result: binds

## GGUUUAUACCUUCCCAGGUAACAAACCAACCAACUUUC (structured_RNA) [SL1_extSL1]
[2]
  Kd: 87 µM

## GGGUGUGGCUGUCACUCGGCUGCAUGCUUAGUGCACUCACGCCC (structured_RNA) [SL4]
[3]
  Kd: 53 µM
[4]
  Kd: 64 µM

## GGAUGAAGAUUUUCAAGAAAACUGGAACACUAA (structured_RNA) [P2]
[5]
  binding result: binds

## GGCUUUCGAUCUCUUGUAGAUCUGUUCUCUAAACGAACUUUAA (structured_RNA) [SL2+3]
[6]; two stem-loops
  apparent K (half saturation): ~10 µM

## GCCUAAUCUUUACAAAAUGCAAAGA (structured_RNA) [P3_B]
[7]; labile hairpin
  binding result: binds

## GCGUGGCAACCGGGUGUUGCUAUGCCUAAUCUUUACAAAAUGCAAAGA (structured_RNA) [P3]
[7]; tandem stem-loops
  binding result: binds

B1: SL4ext (SL4_extSL4) (structured_RNA)
RNA: GGUCUGUGUGGCUGUCACUCGGCUGCAUGCUUAGUGCACUCACGCAGUAUAAUUAAUAACUAAUUACUG
[6]; 15N-U/G for RNA-observed NMR, hairpin with 3' labile extension
  apparent K (half saturation): ~5 µM

B2: SL5 (structured_RNA)
RNA: GGUCGUUGACAGGACACGAGUAACUCGUCUAUCUUCUGCAGGCUGCUUACGGUUUCGUCCGUGUUGCAGCCGAUCAUCAGCACAUCUAGGUUUCGUCCGGGUGUGACCGAAAGGUAAGAUGGAGAGCCUUGUCCCUGGUUUCAACGAGAA
[8]
  binding result: binds

Source: publication PMC10246530
